This passage reports ratio to parent results from paper PMC7969950.

The target of the test is endogenous LC3 (MCF10A cells), Q9GZQ8. Briefly: co-immunoprecipitation (Flag-Trap), immunoblot. The note with it: chain shown with the change; BafA1-treated MCF10A cells; parent: 1.0.

B1: wild-type Flag-CTNNA1 (in MCF10A cells), P35221 Y419A; V422A; L897A; F900A (protein)
chain: MTAVHAGNINFKWDPKSLEIRTLAVERLLEPLVTQVTTLVNTNSKGPSNKKRGRSKKAHVLAASVEQATENFLEKGDKIAKESQFLKEELVAAVEDVRKQGDLMKAAAGEFADDPCSSVKRGNMVRAARALLSAVTRLLILADMADVYKLLVQLKVVEDGILKLRNAGNEQDLGIQYKALKPEVDKLNIMAAKRQQELKDVGHRDQMAAARGILQKNVPILYTASQACLQHPDVAAYKANRDLIYKQLQQAVTGISNAAQATASDDASQHQGGGGGELAYALNNFDKQIIVDPLSFSEERFRPSLEERLESIISGAALMADSSCTRDDRRERIVAECNAVRQALQDLLSEYMGNAGRKERSDALNSAIDKMTKKTRDLRRQLRKAVMDHVSDSFLETNVPLLVLIEAAKNGNEKEVKEAAQAFREHANKLIEVANLACSISNNEEGVKLVRMSASQLEALCPQVINAALALAAKPQSKLAQENMDLFKEQWEKQVRVLTDAVDDITSIDDFLAVSENHILEDVNKCVIALQEKDVDGLDRTAGAIRGRAARVIHVVTSEMDNYEPGVYTEKVLEATKLLSNTVMPRFTEQVEAAVEALSSDPAQPMDENEFIDASRLVYDGIRDIRKAVLMIRTPEELDDSDFETEDFDVRSRTSVQTEDDQLIAGQSARAIMAQLPQEQKAKIAEQVASFQEEKSKLDAEVSKWDDSGNDIIVLAKQMCMIMMEMTDFTRGKGPLKNTSDVISAAKKIAEAGSRMDKLGRTIADHCPDSACKQDLLAYLQRIALYCHQLNICSKVKAEVQNLGGELVVSGVDSAMSLIQAAKNLMNAVVQTVKASYVASTKYQKSQGMASLNLPAVSWKMKAPEKKPLVKREKQDETQTKIKRASQKKHVNPVQAASEAKAMDSI
Consider B1, for which the ratio to parent was determined as 0.29.

B2: wild-type Flag-CTNNA1 (in MCF10A cells), P35221 Y419A; V422A (protein)
chain: MTAVHAGNINFKWDPKSLEIRTLAVERLLEPLVTQVTTLVNTNSKGPSNKKRGRSKKAHVLAASVEQATENFLEKGDKIAKESQFLKEELVAAVEDVRKQGDLMKAAAGEFADDPCSSVKRGNMVRAARALLSAVTRLLILADMADVYKLLVQLKVVEDGILKLRNAGNEQDLGIQYKALKPEVDKLNIMAAKRQQELKDVGHRDQMAAARGILQKNVPILYTASQACLQHPDVAAYKANRDLIYKQLQQAVTGISNAAQATASDDASQHQGGGGGELAYALNNFDKQIIVDPLSFSEERFRPSLEERLESIISGAALMADSSCTRDDRRERIVAECNAVRQALQDLLSEYMGNAGRKERSDALNSAIDKMTKKTRDLRRQLRKAVMDHVSDSFLETNVPLLVLIEAAKNGNEKEVKEAAQAFREHANKLIEVANLACSISNNEEGVKLVRMSASQLEALCPQVINAALALAAKPQSKLAQENMDLFKEQWEKQVRVLTDAVDDITSIDDFLAVSENHILEDVNKCVIALQEKDVDGLDRTAGAIRGRAARVIHVVTSEMDNYEPGVYTEKVLEATKLLSNTVMPRFTEQVEAAVEALSSDPAQPMDENEFIDASRLVYDGIRDIRKAVLMIRTPEELDDSDFETEDFDVRSRTSVQTEDDQLIAGQSARAIMAQLPQEQKAKIAEQVASFQEEKSKLDAEVSKWDDSGNDIIVLAKQMCMIMMEMTDFTRGKGPLKNTSDVISAAKKIAEAGSRMDKLGRTIADHCPDSACKQDLLAYLQRIALYCHQLNICSKVKAEVQNLGGELVVSGVDSAMSLIQAAKNLMNAVVQTVKASYVASTKYQKSQGMASLNLPAVSWKMKAPEKKPLVKREKQDETQTKIKRASQKKHVNPVQALSEFKAMDSI
Turning to B2, the ratio to parent stood at 0.23.

B3: wild-type Flag-CTNNA1 (in MCF10A cells), P35221 L897A; F900A (protein)
chain: MTAVHAGNINFKWDPKSLEIRTLAVERLLEPLVTQVTTLVNTNSKGPSNKKRGRSKKAHVLAASVEQATENFLEKGDKIAKESQFLKEELVAAVEDVRKQGDLMKAAAGEFADDPCSSVKRGNMVRAARALLSAVTRLLILADMADVYKLLVQLKVVEDGILKLRNAGNEQDLGIQYKALKPEVDKLNIMAAKRQQELKDVGHRDQMAAARGILQKNVPILYTASQACLQHPDVAAYKANRDLIYKQLQQAVTGISNAAQATASDDASQHQGGGGGELAYALNNFDKQIIVDPLSFSEERFRPSLEERLESIISGAALMADSSCTRDDRRERIVAECNAVRQALQDLLSEYMGNAGRKERSDALNSAIDKMTKKTRDLRRQLRKAVMDHVSDSFLETNVPLLVLIEAAKNGNEKEVKEYAQVFREHANKLIEVANLACSISNNEEGVKLVRMSASQLEALCPQVINAALALAAKPQSKLAQENMDLFKEQWEKQVRVLTDAVDDITSIDDFLAVSENHILEDVNKCVIALQEKDVDGLDRTAGAIRGRAARVIHVVTSEMDNYEPGVYTEKVLEATKLLSNTVMPRFTEQVEAAVEALSSDPAQPMDENEFIDASRLVYDGIRDIRKAVLMIRTPEELDDSDFETEDFDVRSRTSVQTEDDQLIAGQSARAIMAQLPQEQKAKIAEQVASFQEEKSKLDAEVSKWDDSGNDIIVLAKQMCMIMMEMTDFTRGKGPLKNTSDVISAAKKIAEAGSRMDKLGRTIADHCPDSACKQDLLAYLQRIALYCHQLNICSKVKAEVQNLGGELVVSGVDSAMSLIQAAKNLMNAVVQTVKASYVASTKYQKSQGMASLNLPAVSWKMKAPEKKPLVKREKQDETQTKIKRASQKKHVNPVQAASEAKAMDSI
Consider B3, for which the ratio to parent was found to be 0.22.
